Measured values from paper PMC10213618 (Frontiers in Immunology, 2023).
Blank lines part the entries; values can stand above or below the binder they belong to. Primed or numbered codes have the meaning given here. Where no end group is shown, it is not given here. [ ]: non-standard residue; d: D form. PEG2′ = diethylene glycolate linker

Tests used:
IL-17A [1] = target: T1, IL-17A (UniProt Q16552 24-155); experiment: cell-based or functional assay
IL-17A [2] = target: T1, IL-17A; experiment: SPR; IL-17A amine-coupled to a CM5 chip (110-270 RU); chimeric peptides 1000 nM to 15.5 nM flowed in HBS-EP+; steady state fitting; settings: both partners purified
mouse serum albumin = target: T2, mouse serum albumin (mouse, UniProt P07724 25-608); experiment: SPR; HSA or MSA amine-coupled to a CM5 chip (110-270 RU); peptides 1000 nM to 15.5 nM flowed in HBS-EP+; multi-cycle kinetics, 1:1 binding model; settings: both partners purified
T2 construct: mouse serum albumin; also called MSA

human TNFα = target: T3, human TNFα (Homo sapiens, UniProt P01375); experiment: SPR; Biacore 8K+, multi-cycle kinetics, 25°C; Fab captured by immobilised anti-human Fab antibodies; serial dilutions of TNFα injected in HBS-EP+; 1:1 binding model; settings: both partners purified
T3 construct: human tumour necrosis factor alpha, UniProt P01375
T3 sequence (P01375 whole entry): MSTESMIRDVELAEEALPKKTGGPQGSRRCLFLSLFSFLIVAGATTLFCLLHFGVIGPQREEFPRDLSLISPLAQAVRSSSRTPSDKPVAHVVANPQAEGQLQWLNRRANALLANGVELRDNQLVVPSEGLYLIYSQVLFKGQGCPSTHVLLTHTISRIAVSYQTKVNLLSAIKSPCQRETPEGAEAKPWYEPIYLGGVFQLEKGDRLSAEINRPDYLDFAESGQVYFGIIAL

T2 sequence (P07724 25-608): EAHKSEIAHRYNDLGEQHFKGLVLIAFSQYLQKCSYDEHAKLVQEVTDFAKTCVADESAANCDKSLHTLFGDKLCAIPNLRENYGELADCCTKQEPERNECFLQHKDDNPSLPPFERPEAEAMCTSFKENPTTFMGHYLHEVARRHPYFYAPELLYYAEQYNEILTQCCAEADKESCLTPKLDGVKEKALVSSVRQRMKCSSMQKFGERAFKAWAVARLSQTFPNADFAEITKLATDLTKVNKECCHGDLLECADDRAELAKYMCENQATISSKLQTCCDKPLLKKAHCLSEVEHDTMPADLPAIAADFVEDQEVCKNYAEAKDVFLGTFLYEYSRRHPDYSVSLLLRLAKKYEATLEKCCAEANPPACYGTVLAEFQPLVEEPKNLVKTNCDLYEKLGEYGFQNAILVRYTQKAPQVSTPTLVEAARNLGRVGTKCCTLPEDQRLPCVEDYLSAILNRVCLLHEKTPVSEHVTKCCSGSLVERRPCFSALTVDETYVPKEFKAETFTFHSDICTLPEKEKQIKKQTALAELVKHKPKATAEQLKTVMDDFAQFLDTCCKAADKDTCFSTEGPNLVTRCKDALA
T1 sequence (Q16552 24-155): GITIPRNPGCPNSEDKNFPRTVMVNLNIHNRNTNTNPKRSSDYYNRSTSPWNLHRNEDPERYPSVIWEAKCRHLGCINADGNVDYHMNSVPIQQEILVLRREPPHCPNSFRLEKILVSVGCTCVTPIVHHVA

IC50 of inhibition of IL-6 release from human dermal fibroblasts stimulated with IL-17A and TNFα (blocks IL-17A with IL-17RA) (IL-17A [1]): 38 nM
Kd (IL-17A [2]): 275 nM
Kd (mouse serum albumin): 370 nM
koff (mouse serum albumin): 0.00166 s⁻¹
kon (mouse serum albumin): 4500 M⁻¹ s⁻¹
B1: aMSA-HAP chimeric peptide (peptide)
chain: IHVTIPADLWDWINK[PEG2′]TCPDGQRDRGGCSGPYSCGGDNCCAYAAASVYRGYSCKDTYEW
modifications: disulfide (positions not given here); not fully specified

Kd (human TNFα): 0.221 nM
koff (human TNFα): 9.9e-05 s⁻¹
kon (human TNFα): 447000 M⁻¹ s⁻¹
B2: FabT (Fab, V domains shown)
VH: EVQLVESGGGLVKPGGSLRLSCAASGYTFTDNYIHWVRQAPGKGLEWIGYINPSSAYAHYNEKFKTRFTISVDKAKNSAYLQMNSLRAEDTAVYYCTRRYYSAMPFAYWGQGTLVTVSS
VL: DIQMTQSPSSLSASVGDRVTITCRASEDIYSGLAWYQQKPGKVPKLLIYDSSTLHTGVPSRFSGTGSGTDYTLTISSLQPEDVATYFCQQNYDFPLTFGQGTKLEIK
notes: humanised VH with human gamma1 CH1; humanised VL with human C kappa; also called parent FabT; unmodified FabT fragment; source: CHO-S XE, transient, purified (Protein G, SEC)
